From patent US20050064507

How the values were obtained:
[1] = target: T1, NIK peptide TEGKMARVAWKGKRRSKARK (SEQ ID NO:164) (not fully specified)
T1 chain: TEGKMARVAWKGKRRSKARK

[2] = target: T2, cyclophilin G peptide TEEKSKKRKKKHRKNSRKHK (SEQ ID NO:165) (not fully specified)
T2 chain: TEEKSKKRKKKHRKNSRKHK

[3] = target: T3, Urotensin-2 receptor peptide LYARLARAYRRSQRASFKRA (SEQ ID NO:159) (not fully specified)
T3 chain: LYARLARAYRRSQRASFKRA

[4] = target: T4, ADD2 peptide KKKFRTPSFLKKSKK (SEQ ID NO:95) (not fully specified)
T4 chain: KKKFRTPSFLKKSKK

[5] = target: T5, ARHGAP6 peptide SAQITIPKDGQKRKKSLRKK (SEQ ID NO:156) (not fully specified)
T5 chain: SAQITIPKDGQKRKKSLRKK

[6] = target: T6, ARHGAP6 peptide DGQKRKKSLRKKLD (SEQ ID NO:92) (not fully specified)
T6 chain: DGQKRKKSLRKKLD

[7] = target: T7, AKAP12 peptide AGWRKKTSFRKPKED (SEQ ID NO:99) (not fully specified)
T7 chain: AGWRKKTSFRKPKED

[8] = target: T8, SPTBN4 peptide EGGDRRASGRRK (SEQ ID NO:110) (not fully specified)
T8 chain: EGGDRRASGRRK

[9] = target: T9, fit1 peptide VQMTWSYPDEKNKRASVRRR (SEQ ID NO:158) (not fully specified)
T9 chain: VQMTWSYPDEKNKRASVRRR

[10] = target: T10, MLK3 peptide QQVDRERPHVRRRRGTFKRS (SEQ ID NO:128) (not fully specified)
T10 chain: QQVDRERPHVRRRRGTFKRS

[11] = target: T11, dag kinase iota peptide NRKKKRTSFKRKA (SEQ ID NO:117) (not fully specified)
T11 chain: NRKKKRTSFKRKA

[12] = target: T12, PSCDBP peptide LSSMFGTLPRKSRKGSVRKQ (SEQ ID NO:144) (not fully specified)
T12 chain: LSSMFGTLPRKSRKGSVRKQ

[13] = target: T13, gravin peptide KKFFTQGWAGWRKKTSFRKP (SEQ ID NO:154) (not fully specified)
T13 chain: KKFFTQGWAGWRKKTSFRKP

[14] = target: T14, CHRM1 peptide RKIPKRPGSVHRTPSRQ (SEQ ID NO:83) (not fully specified)
T14 chain: RKIPKRPGSVHRTPSRQ

[15] = target: T15, DGKZ peptide KKKKRASFKRKSSKKG (SEQ ID NO:77) (not fully specified)
T15 chain: KKKKRASFKRKSSKKG

[16] = target: T16, FLJ20574 peptide GENVLKKSMKSRVKG (SEQ ID NO:113) (not fully specified)
T16 chain: GENVLKKSMKSRVKG

[17] = target: T17, ANK1 peptide AQIVKRASLKRGKQ (SEQ ID NO:90) (not fully specified)
T17 chain: AQIVKRASLKRGKQ

[18] = target: T18, p164-RhoGEF peptide PRLIRRGSKKRPAR (SEQ ID NO:82) (not fully specified)
T18 chain: PRLIRRGSKKRPAR

[19] = target: T19, MGC2941 peptide RPTPGDGEKRSRIKKSKKRK (SEQ ID NO:139) (not fully specified)
T19 chain: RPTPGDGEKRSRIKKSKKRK

[20] = target: T20, p164-RhoGEF peptide PRLIRRGSKKRPAR (SEQ ID NO:124) (not fully specified)
T20 chain: PRLIRRGSKKRPAR

[21] = target: T21, PLD1 peptide KYKAFIRIPIPTRRHTFRRQ (SEQ ID NO:161) (not fully specified)
T21 chain: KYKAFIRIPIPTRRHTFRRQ

[22] = target: T22, dag kinase iota peptide PQNSLKASNRKKKRTSFKRK (SEQ ID NO:151) (not fully specified)
T22 chain: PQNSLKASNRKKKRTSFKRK

[23] = target: T23, phospholemman peptide EEGTFRSSIRRLSTRRR (SEQ ID NO:116) (not fully specified)
T23 chain: EEGTFRSSIRRLSTRRR

[24] = target: T24, MARCKS peptide KKKRFSFKKSFKLSGFSFKK (SEQ ID NO:111) (not fully specified)
T24 chain: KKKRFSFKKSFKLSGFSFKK

[25] = target: T25, SYTL4 peptide RQGKRKTSIKRDTVNPL (SEQ ID NO:87) (not fully specified)
T25 chain: RQGKRKTSIKRDTVNPL

[26] = target: T26, MAP3K14 peptide WKGKRRSKARKKRK (SEQ ID NO:100) (not fully specified)
T26 chain: WKGKRRSKARKKRK

[27] = target: T27, PPP1R14A peptide QKRHARVTVKYDRRE (SEQ ID NO:107) (not fully specified)
T27 chain: QKRHARVTVKYDRRE

[28] = target: T28, p47phox peptide QAQRQIKRGAPPRRSSIRNA (SEQ ID NO:146) (not fully specified)
T28 chain: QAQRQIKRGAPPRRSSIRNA

[29] = target: T29, PLEK peptide KFARKSTRRSIRLPE (SEQ ID NO:78) (not fully specified)
T29 chain: KFARKSTRRSIRLPE

[30] = target: T30, dag kinase iota peptide NRKKKRTSFKRKA (SEQ ID NO:115) (not fully specified)
T30 chain: NRKKKRTSFKRKA

B1: PKC-epsilon (protein)
chain: MVVFNGLLKIKICEAVSLKPTAWSLRHAVGPRPQTFLLDPYIALNVDDSRIGQTATKQKTNSPAWHDEFVTDVCNGRKIELAVFHDAPIGYDDFVANCTIQFEELLQNGSRHFEDWIDLEPEGRVYVIIDLSGSSGEAPKDNEERVFRERMRPRKRQGAVRRRVHQVNGHKFMATYLRQPTYCSHCRDFIWGVIGKQGYQCQVCTCVVHKRCHELIITKCAGLKKQETPDQVGSQRFSVNMPHKFGIHNYKVPTFCDHCGSLLWGLLRQGLQCKVCKMNVHRRCETNVAPNCGVDARGIAKVLADLGVTPDKITNSGQRRKKLIAGAESPQPASGSSPSEEDRSKSAPTSPCDQEIKELENNIRKALSFDNRGEEHRAASSPDGQLMSPGENGEVRQGQAKRLGLDEFNFIKVLGKGSFGKVMLAELKGKDEVYAVKVLKKDVILQDDDVDCTMTEKRILALARKHPYLTQLYCCFQTKDRLFFVMEYVNGGDLMFQIQRSRKFDEPRSRFYAAEVTSALMFLHQHGVIYRDLKLDNILLDAEGHCKLADFGMCKEGILNGVTTTTFCGTPDYIAPEILQELEYGPSVDWWALGVLMYEMMAGQPPFEADNEDDLFESILHDDVLYPVWLSKEAVSILKAFMTKNPHKRLGCVASQNGEDAIKQHPFFKEIDWVLLEQKKIKPPFKPRIKTKRDVNNFDQDFTREEPVLTLVDEAIVKQINQEEFKGFSYFGEDLMP
- in vitro phosphorylation, 1 uM peptide (% of best substrate) [1]: 12
- in vitro phosphorylation, 1 uM peptide (% of best substrate) [2]: 12
- in vitro phosphorylation, 1 uM peptide (% of best substrate) [3]: 25
- in vitro phosphorylation (% of best substrate) [4]: 31
- in vitro phosphorylation, 1 uM peptide (% of best substrate) [5]: 18
- in vitro phosphorylation (% of best substrate) [6]: 51
- in vitro phosphorylation (% of best substrate) [7]: 27
- in vitro phosphorylation (% of best substrate) [8]: 4
- in vitro phosphorylation, 1 uM peptide (% of best substrate) [9]: 11
- in vitro phosphorylation, 1 uM peptide (% of best substrate) [10]: 32
- in vitro phosphorylation, 1 uM peptide (% of best substrate) [11]: 67
- in vitro phosphorylation, 1 uM peptide (% of best substrate) [12]: 24
- in vitro phosphorylation, 1 uM peptide (% of best substrate) [13]: 29
- in vitro phosphorylation (% of best substrate) [14]: 47
- in vitro phosphorylation (% of best substrate) [15]: 71
- in vitro phosphorylation (% of best substrate) [16]: 10
- in vitro phosphorylation (% of best substrate) [17]: 49
- in vitro phosphorylation (% of best substrate) [18]: 72
- in vitro phosphorylation, 1 uM peptide (% of best substrate) [19]: 24
- in vitro phosphorylation, 1 uM peptide (% of best substrate) [20]: 49
- in vitro phosphorylation, 1 uM peptide (% of best substrate) [21]: 21
- in vitro phosphorylation, 1 uM peptide (% of best substrate) [22]: 24
- in vitro phosphorylation, 1 uM peptide (% of best substrate) [23]: 92
- in vitro phosphorylation (% of best substrate) [24]: 12
- in vitro phosphorylation (% of best substrate) [25]: 31
- in vitro phosphorylation (% of best substrate) [26]: 13
- in vitro phosphorylation (% of best substrate) [27]: 7
- in vitro phosphorylation, 1 uM peptide (% of best substrate) [28]: 28
- in vitro phosphorylation (% of best substrate) [29]: 84
- in vitro phosphorylation, 1 uM peptide (% of best substrate) [30]: 91
